In KR20160085666A (dated 2016) one finds Kd data, which are given here for two molecules.

This assay deals with T1, c-Met-Fc (#358-MT/CF, R&D Systems) (UniProt P08581 25-932).
T1 construct: Bought reagent; also called 항원(c-Met); not shown: Fc part of the bought fusion
Briefly: SPR, Biacore T100; antibody captured on human Fab binder on a CM5 chip, c-Met-Fc injected at various concentrations. Background: SPR reads the build-up and loss of mass on a sensor chip optically.

One may read the Kd as the concentration at which binding is half-saturated. The low end stands for higher affinity, the high end for lower affinity.

T1 sequence (P08581 25-932 limits assumed): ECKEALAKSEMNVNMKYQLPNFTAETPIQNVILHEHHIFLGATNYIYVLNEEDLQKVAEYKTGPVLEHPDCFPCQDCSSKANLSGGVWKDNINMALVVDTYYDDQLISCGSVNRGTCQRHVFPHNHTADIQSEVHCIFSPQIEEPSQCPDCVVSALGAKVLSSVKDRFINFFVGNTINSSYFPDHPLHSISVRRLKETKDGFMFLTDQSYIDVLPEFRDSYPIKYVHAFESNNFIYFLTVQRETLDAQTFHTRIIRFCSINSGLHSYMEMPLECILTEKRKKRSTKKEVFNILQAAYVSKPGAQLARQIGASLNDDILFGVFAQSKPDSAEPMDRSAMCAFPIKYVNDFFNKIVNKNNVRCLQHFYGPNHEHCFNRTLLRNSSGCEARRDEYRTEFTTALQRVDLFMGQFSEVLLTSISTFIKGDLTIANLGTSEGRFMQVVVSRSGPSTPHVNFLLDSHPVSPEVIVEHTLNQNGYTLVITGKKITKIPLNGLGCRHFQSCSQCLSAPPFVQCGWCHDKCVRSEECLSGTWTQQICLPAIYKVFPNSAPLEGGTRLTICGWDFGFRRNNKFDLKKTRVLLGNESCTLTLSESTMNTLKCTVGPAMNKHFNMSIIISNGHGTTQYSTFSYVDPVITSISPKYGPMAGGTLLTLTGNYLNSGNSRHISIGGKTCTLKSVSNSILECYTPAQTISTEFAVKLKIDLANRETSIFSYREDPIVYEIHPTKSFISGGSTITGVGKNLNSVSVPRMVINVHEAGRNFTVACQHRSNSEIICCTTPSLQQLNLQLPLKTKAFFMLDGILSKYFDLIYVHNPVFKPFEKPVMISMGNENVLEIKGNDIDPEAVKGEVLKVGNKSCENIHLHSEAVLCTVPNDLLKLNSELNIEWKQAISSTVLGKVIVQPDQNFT

B1: 항 c-Met 항체 (L3-1Y/IgG2), GSKO301 세포 생산 (antibody, V domains shown)
VH: EVQLVESGGGLVQPGGSLRLSCAASGFTFTDYYMSWVRQAPGKGLEWLGFIRNKANGYTTEYSASVKGRFTISRDNSKNTLYLQMNSLRAEDTAVYYCARDNWFAYWGQGTLVTVSS
VL: DIQMTQSPSSLSASVGDRVTITCKSSQSLLASGNQNNYLAWYQQKPGKAPKMLIIWASTRVSGVPSRFSGSGSGTDFTLTISSLQPEDFATYYCQQSYSRPYTFGQGTKVEIKR
notes: Produced in GS-KO CHO cells that express the antibody only (GSKO301); also called STD (12A37); GSKO301 생산 항체
In turn, B1 yielded a Kd of 0.057 nM.

B2: 항 c-Met 항체 (L3-1Y/IgG2), GSKO301 GOT1 세포 생산 (antibody, V domains shown)
VH: B1 VH
VL: B1 VL
notes: Produced in GS-KO CHO cells that express the antibody and overexpress GOT1 (GSKO301 GOT1); also called GSKO301 GOT1 생산 항체; anti-c-Met antibody L3-1Y/IgG2
For B2, the Kd was determined as 0.076 nM.
